Measured values reported in PMC9935876, “Structure of the planar cell polarity cadherins Fat4 and Dachsous1” (Nature Communications, 2023).
Numbering of substitutions follows the chain as printed. Names may count otherwise. “And” between values parts separate entries of the source, which are not always exact repeats. Equal values may be shown once.

What was measured:
Assay in all cases: ITC; MicroCal ITC200; Fat4 construct 30 µM in the sample cell, Dchs1 construct 300 µM as titrant; 20 °C; fitted with one set of sites; two independent experiments
Conditions in all cases: both partners purified
Human Fat4(EC1-4) [1] = biological target: T1, Human Fat4(EC1-4) (human, UniProt Q6V0I7 43-475)
T1 construct: Fat4, human, EC1-EC4, aa43-475; Tags were cleaved only for the constructs meant for co-crystallisation; nothing is said for ITC; also called Fat4 EC1–EC4
T1 sequence: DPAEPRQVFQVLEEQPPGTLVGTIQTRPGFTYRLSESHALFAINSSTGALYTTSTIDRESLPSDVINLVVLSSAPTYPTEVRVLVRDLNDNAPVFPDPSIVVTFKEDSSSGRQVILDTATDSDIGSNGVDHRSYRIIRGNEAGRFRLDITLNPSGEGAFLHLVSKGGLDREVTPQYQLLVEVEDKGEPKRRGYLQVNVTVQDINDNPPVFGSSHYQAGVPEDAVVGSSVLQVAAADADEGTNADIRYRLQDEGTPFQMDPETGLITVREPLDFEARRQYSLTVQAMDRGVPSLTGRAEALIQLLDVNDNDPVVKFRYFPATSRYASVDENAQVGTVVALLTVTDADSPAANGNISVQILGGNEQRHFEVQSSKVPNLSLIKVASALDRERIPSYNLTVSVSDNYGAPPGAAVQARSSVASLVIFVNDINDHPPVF

Human Fat4F358A(EC1-4) = biological target: T2, Human Fat4F358A(EC1-4) (human, UniProt Q6V0I7 43-475, F358A)
T2 construct: Fat4, human, EC1-EC4, aa43-475, with F358A in EC4
T2 sequence: T1 sequence with F318A

Human Fat4(EC1-4) [2] = biological target: T1, Human Fat4(EC1-4); remark: listed apart in the source

B1: Human Dchs1(EC1-4) (domain or fragment)
chain: DPQAGSLDLQIDEEQPAGTLIGDISAGLPAGTAAPLMYFISAQEGSGVGTDLAIDEHSGVVRTARVLDREQRDRYRFTAVTPDGATVEVTVRVADINDHAPAFPQARAALQVPEHTAFGTRYPLEPARDADAGRLGTQGYALSGDGAGETFRLETRPGPDGTPVPELVVTGELDRENRSHYMLQLEAYDGGSPPRRAQALLDVTLLDINDHAPAFNQSRYHAVVSESLAPGSPVLQVFASDADAGVNGAVTYEINRRQSEGDGPFSIDAHTGLLQLERPLDFEQRRVHELVVQARDGGAHPELGSAFVTVHVRDANDNQPSMTVIFLSADGSPQVSEAAPPGQLVARISVSDPDDGDFAHVNVSLEGGEGHFALSTQDSVIYLVCVARRLDREERDAYNLRVTATDSGSPPLRAEAAFVLHVTDVNDNAPAF
notes: Dchs1 (Dachsous1), human, EC1-EC4, aa43-472; also called Dachsous1 EC1–EC4
- Kd (Human Fat4(EC1-4) [1]): 488 nM and 463 nM
- Kd (Human Fat4F358A(EC1-4)): 950 nM and 770 nM

B2: Human Dchs1F79A(EC1-4) (domain or fragment)
chain: B1 chain with F39A
notes: Dchs1 (Dachsous1), human, EC1-EC4, aa43-472, with F79A in EC1
- Kd (Human Fat4(EC1-4) [2]): 1560 nM and 2480 nM
